Results on one protein are retold here after patent US7344852 (Takeda / Millennium, dated 2008).

The series deals with the molecule itself. Put plainly: X-ray crystal structure of apo DPPIV (self-association, homodimer). As to the method:
The structure of DPPIV was solved by a combination of heavy-atom derivatives and Seleno-Methionine (Se-Met) phasing in conjunction with non-crystallographic averaging. Heavy atom derivatives were obtained by soaking native DPPIV crystals in heavy atom solutions made using the crystallization solution. The concentration of heavy atom derivative and time of soaking varied between 0.5 mM to 10 mM and 1 to 15 days, respectively. An extensive array of heavy atom derivatives were individually soaked into DPPIV crystals and analyzed. Two heavy atom derivatives were used to determine the phases: di-m-iodobis (ethylene-diamine)-di-platinum (II) nitrate (PIP) and ethyl mercuric thiosalicylic acid sodium salt (EMTS). Data from crystals of apo DPPIV, Se-Met-DPPIV, PIP-DPPIV and EMTS-DPPIV were collected from cryocooled crystals (100K) at the Stanford Synchrotron Radiation Laboratory (SSRL) beam lines 9-1, 9-2 and 11-1 and the Advanced Light Source (ALS) beam lines 5.0.2 and 5.0.3 both using an ADSC Quantum CCD detector. […] Data were collected and integrated to 2.3 Å with MOSFLM (or HKL2000) and scaled with SCALA (or Scalepack) (CCP4 Study Weekend, Eds. Sawyer, L., Isaacs, N. & Bailey, S. 56-62, SERC Daresbury Laboratory, England, 1993).
Crystals were obtained after an extensive and broad screen of conditions, followed by optimization. […]

B1: recombinant human dipeptidyl peptidase IV (DPPIV), residues 39-766 of SEQ ID NO:1 with part of a gp67 signal sequence and a 6x-histidine tag (SEQ ID NO:3) (enzyme)
chain: ADPGGSHHHHHHSRKTYTLTDYLKNTYRLKLYSLRWISDHEYLYKQENNILVFNAEYGNSSVFLENSTFDEFGHSINDYSISPDGQFILLEYNYVKQWRHSYTASYDIYDLNKRQLITEERIPNNTQWVTWSPVGHKLAYVWNNDIYVKIEPNLPSYRITWTGKEDIIYNGITDWVYEEEVFSAYSALWWSPNGTFLAYAQFNDTEVPLIEYSFYSDESLQYPKTVRVPYPKAGAVNPTVKFFVVNTDSLSSVTNATSIQITAPASMLIGDHYLCDVTWATQERISLQWLRRIQNYSVMDICDYDESSGRWNCLVARQHIEMSTTGWVGRFRPSEPHFTLDGNSFYKIISNEEGYRHICYFQIDKKDCTFITKGTWEVIGIEALTSDYLYYISNEYKGMPGGRNLYKIQLSDYTKVTCLSCELNPERCQYYSVSFSKEAKYYQLRCSGPGLPLYTLHSSVNDKGLRVLEDNSALDKMLQNVQMPSKKLDFIILNETKFWYQMILPPHFDKSKKYPLLLDVYAGPCSQKADTVFRLNWATYLASTENIIVASFDGRGSGYQGDKIMHAINRRLGTFEVEDQIEAARQFSKMGFVDNKRIAIWGWSYGGYVTSMVLGSGSGVFKCGIAVAPVSRWEYYDSVYTERYMGLPTPEDNLDHYRNSTVMSRAENFKQVEYLLIHGTADDNVHFQQSAQISKALVDVGVDFQAMWYTDEDHGIASSTAHQHIYTHMSHFIKQCFSLP
modifications: glycosylated; four or five residues per chain carry covalently linked sugar molecules (NAG), positions not given
notes: Secreted from baculovirus-infected insect cells; crystallised as apo protein; The asymmetric unit holds four copies that form two dimers (A with B, C with D); also called DPP4; CD26
Regarding B1, the binding result is recorded as “binds”.
